Literature values, collected in PMC7920998.

System: Glu122
Test: kinetics
Conditions: enzyme reacting with O2 (non-native substrate); further details not given

In the case of “Cytochrome c-dependent nitric oxide reductase (cNOR, PdNOR) (Paracoccus denitrificans)”, the pKa is given as ~ 6.6.
